Measurements: patent US20210172932A1 (published 2021)

These binders were tested against T1, human FcRn (immobilized on nickel-nitrilotriacetic acid-coated biosensors) (human, UniProt P55899 24-297; P61769 21-119) (assay: BLI (Octet RED), FcRn on Ni-NTA biosensor, pH 6.0).
T1 construct: also called neonatal Fc receptor

Binder | Kd [nM]
Pembrolizumab (antibody) chain 1: not shown chain 2: EIVLTQSPATLSLSPGERATLSCRASKGVSTSGYSYLHWYQQKPGQAPRLLIYLASYLESGVPARFSGSGSGTDFTLTISSLEPEDFAVYYCQHSRDLPLTFGGGTKVEIKRTVAAPSVFIFPPSDEQLKSGTASVVCLLNNFYPREAKVQWKVDNALQSGNSQESVTEQDSKDSTYSLSSTLTLSKADYEKHKVYACEVTHQGLSSPVTKSFNRGEC | 290
Emicizumab (bispecific antibody) chain 1: DIQMTQSPSSLSASVGDRVTITCKASRNIERQLAWYQQKPGQAPELLIYQASRKESGVPDRFSGSRYGTDFTLTISSLQPEDIATYYCQQYSDPPLTFGGGTKVEIKRTAAAPSVFIFPPSDEQLKSGTASVVCLLNNFYPREAKVQWKVDNALQSGNSQESVTEQDSKDSTYSLSSTLTLSKADYEKHKVYACEVTHQGLSSPVTKSFNRGEC chain 2: QVQLVESGGGLVQPGGSLRLSCAASGFTFSYYDIQWVRQAPGKGLEWVSSISPSGQSTYYRREVKGRFTISRDNSKNTLYLQMNSLRAEDTAVYYCARRTGREYGGGWYFDYWGQGTLVTVSSASTKGPSVFPLAPCSRSTSESTAALGCLVKDYFPEPVTVSWNSGALTSGVHTFPAVLQSSGLYSLSSVVTVPSSSLGTQTYTCNVDHKPSNTKVDKRVESKYGPPCPPCPAPEFLGGPSVFLFPPKPKDTLMISRTPEVTCVVVDVSQEDPEVQFNWYVDGVEVHNAKTKPREEQYNSTYRVVSVLTVLHQDWLNGKEYKCKVSNKGLPSSIEKTISKAKGQPREPQVYTLPPSQKEMTKNQVSLTCLVKGFYPSDIAVEWESNGQPENNYKTTPPVLDSDGSFFLYSKLTVDKSRWQEGNVFSCSVMHEALHNRYTQKSLSLSPEQKLISEEDLNAVGQDTQEVIVVPHSLPFKVVVISAILALVVLTIISLIILIMLWQKKPR chain 3: QVQLVQSGSELKKPGASVKVSCKASGYTFTDNNMDWVRQAPGQGLEWMGDINTRSGGSIYNEEFQDRVIMTVDKSTDTAYMELSSLRSEDTATYHCARRKSYGYYLDEWGEGTLVTVSSASTKGPSVFPLAPCSRSTSESTAALGCLVKDYFPEPVTVSWNSGALTSGVHTFPAVLQSSGLYSLSSVVTVPSSSLGTQTYTCNVDHKPSNTKVDKRVESKYGPPCPPCPAPEFLGGPSVFLFPPKPKDTLMISRTPEVTCVVVDVSQEDPEVQFNWYVDGVEVHNAKTKPREEQYNSTYRVVSVLTVLHQDWLNGKEYKCKVSNKGLPSSIEKTISKAKGQPREPQVYTLPPSQEEMTKNQVSLTCLVKGFYPSDIAVEWESNGQPENNYKTTPPVLDSDGSFFLYSKLTVDKSRWQEGNVFSCSVMHEALHNHYTQESLSLSPEQKLISEEDLNAVGQDTQEVIVVPHSLPFKVVVISAILALVVLTIISLIILIMLWQKKPR | 1230

The remaining lines, values ahead:

Kd [nM] | Binder
610 | Vedolizumab (antibody) chain 1: not shown chain 2: DVVMTQSPLSLPVTPGEPASISCRSSQSLAKSYGNTYLSWYLQKPGQSPQLLIYGISNRFSGVPDRFSGSGSGTDFTLKISRVEAEDVGVYYCLQGTHQPYTFGQGTKVEIKRTVAAPSVFIFPPSDEQLKSGTASVVCLLNNFYPREAKVQWKVDNALQSGNSQESVTEQDSKDSTYSLSSTLTLSKADYEKHKVYACEVTHQGLSSPVTKSFNRGEC
460 | Tocilizumab (antibody) chain 1: not shown chain 2: not shown
